In PMC12772213:
Like-named read-outs stand apart in the source and are kept apart here.

Experiments:
[1] = target: Actin filaments (rabbit skeletal muscle actin) (rabbit) (UniProt P68135); assay: three-bead optical trap; isometric feedback (hindering load); detachment rate vs. force fitted to the Bell equation, interactions >10 pN excluded; cHMM held through antibody to the S2Tag; 20 °C
[2] = target: Actin filaments (rabbit skeletal muscle actin) (rabbit) (UniProt P68135); assay: as above; remark: listed apart in the source
[3] = target: Actin filaments (rabbit skeletal muscle actin) (rabbit) (UniProt P68135); assay: three-bead optical trap; pedestal bead stage feedback; time between single actomyosin interactions at saturating (2 mM) ATP, double-exponential distribution; cHMM held through antibody to the S2Tag; 20 °C
[4] = target: Actin filaments (rabbit skeletal muscle actin) (rabbit) (UniProt P68135)
[5] = target: Actin filaments (rabbit skeletal muscle actin) (rabbit) (UniProt P68135); assay: three-bead optical trap; unloaded; cHMM held on pedestal beads through antibody to the S2Tag, actin filament suspended between two trapped beads; 2 mM MgATP; 20 °C; 60 mM MOPS, 25 mM KCl, 1 mM DTT, 1 mM MgCl2, 1 mM EGTA; single-molecule events by bead covariance
[6] = target: Actin filaments (rabbit skeletal muscle actin) (rabbit) (UniProt P68135); assay: three-bead optical trap; unloaded; cHMM held on pedestal beads through antibody to the S2Tag, actin filament suspended between two trapped beads; 1 µM MgATP; 20 °C; 60 mM MOPS, 25 mM KCl, 1 mM DTT, 1 mM MgCl2, 1 mM EGTA; single-molecule events by bead covariance
Pyrene-actin (rabbit) = Pyrene-actin (rabbit) (UniProt P68135); assay: stopped-flow pyrene-actin fluorescence; myosin heads (apyrase-treated) mixed with equimolar pyrene-actin 10 min at RT in KMg25 buffer (60 mM MOPS pH 7, 25 mM KCl, 1 mM EGTA, 1 mM MgCl2, 1 mM DTT), then mixed with ATP; ATP-induced dissociation followed by pyrene fluorescence

Bell equation k0 (detachment rate at zero force) [1] [s⁻¹]	Bell equation k0 (detachment rate at zero force) [2] [s⁻¹]	actin reattachment rate in optical trap (fast) [3] [s⁻¹]	actin reattachment rate in optical trap (slow) [3] [s⁻¹]	Actin gliding velocity (in vitro gliding assay, cHMM held through S2Tag antibody, rhodamine-phalloidin labeled actin, 32 °C) [4] [µm/s]	k detach (2 mM ATP) [5] [s⁻¹]	k detach (1 μM ATP) [6] [s⁻¹]	maximum rate of ATP-induced dissociation of actomyosin (Pyrene-actin (rabbit)) [s⁻¹]	Substance
32.9	32	17	0.83	1.6	58.5	6.09	–	Human β-cardiac myosin wild type HMM (WT-cHMM) (from UniProt P12883 1-1935; P05977 1-188; P97457 1-169) (complex)
12.9	–	23	1.62	0.46	12.1	6.26	340	Human β-cardiac myosin HMM M493I mutant (M493I-cHMM) (from UniProt P12883 1-1935; P05977 1-188; P97457 1-169) (complex)
